Paper PMC7917804

B1: FLAG-HA-SBP (FHS)-tagged TNRC6A-SD-WT, Q8NDV7-2 S1616A; S1691A (protein)
chain: PLHQPAMKSFLDNVMPHTTPELQKGPSPINAFSNFPIGLNSNLNVNMDMNSIKEPQSRLRKWTTVDSISVNTSLDQNSSKHGAISSGFRLEESPFVPYDFMNSSTSPASPPGSIGDGWPRAKSPNGSSSVNWPPEFRPGEPWKGYPNIDPETDPYVTPGSVINNLSINTVREVDHLRDRNSGSSSSLNTTLPSTSAWSSIRASNYNVPLSSTAQSTSARNSDSKLTWSPGSVTNTSLAHELWKVPLPPKNITAPSRPPPGLTGQKPPLSTWDNSPLRIGGGWGNSDARYTPGSSWGESSSGRITNWLVLKNLTPQIDGSTLRTLCMQHGPLITFHLNLPHGNALVRYSSKEEVVKAQKSLHMCVLGNTTILAEFASEEEISRFFAQSQSLTPAPGWQSLGSSQSRLGSLDCSHSFSSRTDLNHWNGAGLSGTNCGDLHGTSLWGTPHYSTSLWGPPSSSDPRGISSPAPINAFLSVDHLGGGGESM
B2: FLAG-HA-SBP (FHS)-tagged full-length TNRC6A, wild type, Q8NDV7-2 S1616A; S1691A (protein)
chain: MDADSASSSESERNITIMASGNTGGEKDGLRNSTGLGSQNKFVVGSSSNNVGHGSSTGPWGFSHGAIISTCQVSVDAPESKSESSNNRMNAWGTVSSSSNGGLNPSTLNSASNHGAWPVLENNGLALKGPVGSGSSGINIQCSTIGQMPNNQSINSKVSGGSTHGTWGSLQETCESEVSGTQKVSFSGQPQNITTEMTGPNNTTNFMTSSLPNSGSVQNNELPSSNTGAWRVSTMNHPQMQAPSGMNGTSLSHLSNGESKSGGSYGTTWGAYGSNYSGDKCSGPNGQANGDTVNATLMQPGVNGPMGTNFQVNTNKGGGVWESGAANSQSTSWGSGNGANSGGSRRGWGTPAQNTGTNLPSVEWNKLPSNQHSNDSANGNGKTFTNGWKSTEEEDQGSATSQTNEQSSVWAKTGGTVESDGSTESTGRLEEKGTGESQSRDRRKIDQHTLLQSIVNRTDLDPRVLSNSGWGQTPIKQNTAWDTETSPRGERKTDNGTEAWGSSATQTFNSGACIDKTSPNGNDTSSVSGWGDPKPALRWGDSKGSNCQGGWEDDSAATGMVKSNQWGNCKEEKAAWNDSQKNKQGWGDGQKSSQGWSVSASDNWGETSRNNHWGEANKKSSSGGSDSDRSVSGWNELGKTSSFTWGNNINPNNSSGWDESSKPTPSQGWGDPPKSNQSLGWGDSSKPVSSPDWNKQQDIVGSWGIPPATGKPPGTGWLGGPIPAPAKEEEPTGWEEPSPESIRRKMEIDDGTSAWGDPSKYNYKNVNMWNKNVPNGNSRSDQQAQVHQLLTPASAISNKEASSGSGWGEPWGEPSTPATTVDNGTSAWGKPIDSGPSWGEPIAAASSTSTWGSSSVGPQALSKSGPKSMQDGWCGDDMPLPGNRPTGWEEEEDVEIGMWNSNSSQELNSSLNWPPYTKKMSSKGLSGKKRRRERGMMKGGNKQEEAWINPFVKQFSNISFSRDSPEENVQSNKMDLSGGMLQDKRMEIDKHSLNIGDYNRTVGKGPGSRPQISKESSMERNPYFDKDGIVADESQNMQFMSSQSMKLPPSNSALPNQALGSIAGLGMQNLNSVRQNGNPSMFGVGNTAAQPRGMQQPPAQPLSSSQPNLRAQVPPPLLSPQVPVSLLKYAPNNGGLNPLFGPQQVAMLNQLSQLNQLSQISQLQRLLAQQQRAQSQRSVPSGNRPQQDQQGRPLSVQQQMMQQSRQLDPNLLVKQQTPPSQQQPLHQPAMKSFLDNVMPHTTPELQKGPSPINAFSNFPIGLNSNLNVNMDMNSIKEPQSRLRKWTTVDSISVNTSLDQNSSKHGAISSGFRLEESPFVPYDFMNSSTSPASPPGSIGDGWPRAKSPNGSSSVNWPPEFRPGEPWKGYPNIDPETDPYVTPGSVINNLSINTVREVDHLRDRNSGSSSSLNTTLPSTSAWSSIRASNYNVPLSSTAQSTSARNSDSKLTWSPGSVTNTSLAHELWKVPLPPKNITAPSRPPPGLTGQKPPLSTWDNSPLRIGGGWGNSDARYTPGSSWGESSSGRITNWLVLKNLTPQIDGSTLRTLCMQHGPLITFHLNLPHGNALVRYSSKEEVVKAQKSLHMCVLGNTTILAEFASEEEISRFFAQSQSLTPAPGWQSLGSSQSRLGSLDCSHSFSSRTDLNHWNGAGLSGTNCGDLHGTSLWGTPHYSTSLWGPPSSSDPRGISSPAPINAFLSVDHLGGGGESM

Molecular target: poly(A)-binding protein (PABP), P11940
Sequence (P11940 whole entry): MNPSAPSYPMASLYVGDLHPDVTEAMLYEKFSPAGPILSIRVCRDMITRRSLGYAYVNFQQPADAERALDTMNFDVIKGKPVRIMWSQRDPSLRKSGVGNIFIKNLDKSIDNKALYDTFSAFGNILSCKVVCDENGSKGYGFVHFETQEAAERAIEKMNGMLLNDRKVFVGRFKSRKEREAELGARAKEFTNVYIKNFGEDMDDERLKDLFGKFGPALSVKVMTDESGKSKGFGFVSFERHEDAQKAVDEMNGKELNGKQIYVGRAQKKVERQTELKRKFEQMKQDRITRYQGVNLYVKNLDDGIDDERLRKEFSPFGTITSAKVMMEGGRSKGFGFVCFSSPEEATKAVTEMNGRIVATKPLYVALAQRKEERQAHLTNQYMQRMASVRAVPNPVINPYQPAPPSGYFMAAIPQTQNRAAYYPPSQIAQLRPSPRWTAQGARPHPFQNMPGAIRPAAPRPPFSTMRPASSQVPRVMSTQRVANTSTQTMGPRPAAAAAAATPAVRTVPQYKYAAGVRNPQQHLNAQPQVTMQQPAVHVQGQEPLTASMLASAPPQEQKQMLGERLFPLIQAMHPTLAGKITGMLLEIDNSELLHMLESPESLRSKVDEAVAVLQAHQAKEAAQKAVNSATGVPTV
Experiment: co-immunoprecipitation with anti-FLAG antibody, Western blot quantified with ImageJ
Conditions: chain shown with the change, HeLa cells, parent: est. 1.0, read off a plot

response (three independent experiments) | response (two independent experiments) | Binder
0.81 |  | B1
 | 0.89 | B2
